Columns and labels:
Assay in all cases: SPR
[1] = molecular target: B. hermsii strain HS1 FbpC C-terminal complement inhibitory domain, residues 212-374 (Borrelia hermsii strain HS1)
[2] = molecular target: FbpC-C R248A (Borrelia hermsii strain HS1)
[3] = molecular target: FbpC-C H252A (Borrelia hermsii strain HS1)

Binder | Kd [1] | koff [1] | kon [1] | Kd [2] | koff [2] | kon [2] | Kd [3] | koff [3] | kon [3]
human complement C1r, zymogen form (enzyme) SIPIPQKLFGEVTSPLFPKPYPNNFETTTVITVPTGYRVKLVFQQFDLEPSEGCFYDYVKISADKKSLGRFCGQLGSPLGNPPGKKEFMSQGNKMLLTFHTDFSNEENGTIMFYKGFLAYYQAVDLDECASRSKSGEEDPQPQCQHLCHNYVGGYFCSCRPGYELQEDTHSCQAECSSELYTEASGYISSLEYPRSYPPDLRCNYSIRVERGLTLHLKFLEPFDIDDHQQVHCPYDQLQIYANGKNIGEFCGKQRPPDLDTSSNAVDLLFFTDESGDSRGWKLRYTTEIIKCPQPKTLDEFTIIQNLQPQYQFRDYFIATCKQGYQLIEGNQVLHSFTAVCQDDGTWHRAMPRCKIKDCGQPRNLPNGDFRYTTTMGVNTYKARIQYYCHEPYYKMQTRAGSRESEQGVYTCTAQGIWKNEQKGEKIPRCLPVCGKPVNPVEQRQRIIGGQKAKMGNFPWQVFTNIHGRGGGALLGDRWILTAAHTLYPKEHEAQSNASLDVFLGHTNVEELMKLGNHPIRRVSVHPDYRQDESYNFEGDIALLELENSVTLGPNLLPICLPDNDTFYDLGLMGYVSGFGVMEEKIAHDLRFVRLPVANPQACENWLRGKNRMDVFSQNMFCAGHPSLKQDACQGDSGGVFAVRDPNTDRWVATGIVSWGIGCSRGYGFYTKVLNYVDWIKKEMEEED | 1.2 nM | 5.4e-05 s⁻¹ | 44000 M⁻¹ s⁻¹ | 13 nM | 0.00063 s⁻¹ | 69000 M⁻¹ s⁻¹ |  |  | 
human complement C1r, activated form (enzyme) SIPIPQKLFGEVTSPLFPKPYPNNFETTTVITVPTGYRVKLVFQQFDLEPSEGCFYDYVKISADKKSLGRFCGQLGSPLGNPPGKKEFMSQGNKMLLTFHTDFSNEENGTIMFYKGFLAYYQAVDLDECASRSKSGEEDPQPQCQHLCHNYVGGYFCSCRPGYELQEDTHSCQAECSSELYTEASGYISSLEYPRSYPPDLRCNYSIRVERGLTLHLKFLEPFDIDDHQQVHCPYDQLQIYANGKNIGEFCGKQRPPDLDTSSNAVDLLFFTDESGDSRGWKLRYTTEIIKCPQPKTLDEFTIIQNLQPQYQFRDYFIATCKQGYQLIEGNQVLHSFTAVCQDDGTWHRAMPRCKIKDCGQPRNLPNGDFRYTTTMGVNTYKARIQYYCHEPYYKMQTRAGSRESEQGVYTCTAQGIWKNEQKGEKIPRCLPVCGKPVNPVEQRQRIIGGQKAKMGNFPWQVFTNIHGRGGGALLGDRWILTAAHTLYPKEHEAQSNASLDVFLGHTNVEELMKLGNHPIRRVSVHPDYRQDESYNFEGDIALLELENSVTLGPNLLPICLPDNDTFYDLGLMGYVSGFGVMEEKIAHDLRFVRLPVANPQACENWLRGKNRMDVFSQNMFCAGHPSLKQDACQGDSGGVFAVRDPNTDRWVATGIVSWGIGCSRGYGFYTKVLNYVDWIKKEMEEED | 0.3 nM | 1.4e-05 s⁻¹ | 48000 M⁻¹ s⁻¹ | 0.19 nM | 9.4e-06 s⁻¹ | 45000 M⁻¹ s⁻¹ | 2.4 nM | 0.00012 s⁻¹ | 51000 M⁻¹ s⁻¹

Reference: paper PMC10002728
